In US20220064248A1, “PHARMACEUTICAL COMPOSITION INCLUDING INSULIN AND GLUCAGON” (HANMl PHARM. CO., LTD, priority 2018, published 2022):
Bridges are numbered along the chain shown (N, C = ends). Where no end group is shown, it is not given here. [ ]: non-standard residue; d: D form. Aib = CC(C)(N)C(=O)O

What follows are substances tested against glucagon receptors (Homo sapiens, UniProt P47871) (assay: In vitro activity of glucagon analogs relative to native glucagon). Conditions: relative to native glucagon (SEQ ID NO: 1).
glucagon receptors, sequence (P47871 26-477): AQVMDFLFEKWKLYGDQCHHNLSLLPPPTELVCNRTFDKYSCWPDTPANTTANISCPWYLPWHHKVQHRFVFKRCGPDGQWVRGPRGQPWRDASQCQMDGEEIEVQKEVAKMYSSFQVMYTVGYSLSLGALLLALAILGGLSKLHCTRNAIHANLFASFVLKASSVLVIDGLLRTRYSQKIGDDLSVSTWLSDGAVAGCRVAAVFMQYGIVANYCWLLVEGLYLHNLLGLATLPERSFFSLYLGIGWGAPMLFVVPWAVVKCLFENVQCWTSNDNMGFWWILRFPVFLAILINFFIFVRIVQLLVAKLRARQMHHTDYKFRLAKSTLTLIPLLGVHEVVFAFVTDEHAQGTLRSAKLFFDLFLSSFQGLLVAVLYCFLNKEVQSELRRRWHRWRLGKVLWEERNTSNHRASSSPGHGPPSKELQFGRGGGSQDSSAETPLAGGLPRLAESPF
Assay type: cell-based
Experimental: The glucagon analogs were synthesized with reference to Korean Patent Publication Nos. 10-2016-0082482, 10-2017-003466, and 10-2018-0002544, and pl and in vitro activity thereof were measured.

Row | Substance | In vitro activity (relative activity to SEQ ID NO: 1, %) [%]
1 | HSQGTFTSDYSKYLDSCDAQDFVQWLMNT (glucagon derivative) [SEQ ID NO: 4] | <0.1
2 | YXQGTFTSDYSKYLDSCDAQDFVQWLINT (Y[Aib]QGTFTSDYSKYLDSCDAQDFVQWLINT) [SEQ ID NO: 8] | <0.1
3 | YXQGTFTSDYSKYLDSRRAQDFVQWLMNT (X non-natural residue; glucagon derivative; (2) Xaa is aminoisobutyric acid (Aib)) [SEQ ID NO: 33] | 108.2
4 | HSQGTFTSDYSKYLDCDRAQDFVQWLMNT (glucagon derivative) [SEQ ID NO: 2] | 0.6
5 | YXQGTFTSDYSKYCDEKRAKEFVQWLMNT (Y[Aib]QGTFTSDYSKYCDEKRAKEFVQWLMNT; lactam 16-20) [SEQ ID NO: 23] | 76.8
6 | YXQGTFTSDYSKYLDCRRAQVFVQWLMRT (Y[Aib]QGTFTSDYSKYLDCRRAQVFVQWLMRT) [SEQ ID NO: 16] | 4.2
7 | YXQGTFTSDYSKYLDSRRAQDFVQWLMNTC (glucagon derivative; (2) Xaa is aminoisobutyric acid (Aib)) [SEQ ID NO: 44] | 75.4
8 | HSQGTFTSDYSKYLDSCEADDFVQWLMNT (glucagon derivative) [SEQ ID NO: 6] | <0.1
9 | YXQGTFTSDYSKYLCEKRAKEFVQWLMNT (Y[Aib]QGTFTSDYSKYLCEKRAKEFVQWLMNT; lactam 16-20) [SEQ ID NO: 19] | 12.1
10 | YXQGTFTSDYSKYLDSRRACDFRLWLMNT (Y[Aib]QGTFTSDYSKYLDSRRACDFRLWLMNT) [SEQ ID NO: 18] | <0.1
11 | WXQGTFVSDYSKYLDECRAKDFVQWLMNT (W[Aib]QGTFVSDYSKYLDECRAKDFVQWLMNT; lactam 16-20) [SEQ ID NO: 28] | <0.1
12 | -SQGTFTSDYSKYLDECRAKEFVQWLMNT (lactam 15-19; also: name begins with '-' (N-terminal residue not shown)) [SEQ ID NO: 32] | 0.7
13 | WXQGTFTSDYSKYCDERRAKEFVQWLMNT (W[Aib]QGTFTSDYSKYCDERRAKEFVQWLMNT; lactam 16-20) [SEQ ID NO: 34] | 0.2
14 | HSQGTFTSDYSKYLDSCEAQDFVQWLMNT (glucagon derivative) [SEQ ID NO: 5] | 0.3
15 | YXQGTFTSDYSKYLDCVRAQDFVQWLMRT (Y[Aib]QGTFTSDYSKYLDCVRAQDFVQWLMRT) [SEQ ID NO: 17] | 23.2
16 | YXQGTFTSDYSKYLDECRAKEFVQWLMNT (Y[Aib]QGTFTSDYSKYLDECRAKEFVQWLMNT; lactam 16-20) [SEQ ID NO: 20] | 299.7
17 | YXQGTFVSDYSKYLDECRAKDFVQWLMNT (Y[Aib]QGTFVSDYSKYLDECRAKDFVQWLMNT; lactam 16-20) [SEQ ID NO: 27] | 93.6
18 | YXQGTFTSDCSKYLDSRRAQDFVQWLMNT (Y[Aib]QGTFTSDCSKYLDSRRAQDFVQWLMNT) [SEQ ID NO: 43] | 1.6
19 | WXQGTFTSDYSKYLDECRAKDFVQWLMNT (W[Aib]QGTFTSDYSKYLDECRAKDFVQWLMNT; lactam 16-20) [SEQ ID NO: 26] | 1.0
20 | YXQGTFVSDYSKYLDERRAKDFVQWLMNTC (Y[Aib]QGTFVSDYSKYLDERRAKDFVQWLMNTC; lactam 16-20) [SEQ ID NO: 40] | 40.8
21 | YXQGTFTSDYSKYLDERRAKEFVQWLMNTC (Y[Aib]QGTFTSDYSKYLDERRAKEFVQWLMNTC; lactam 16-20) [SEQ ID NO: 37] | 225.5
22 | YXQGTFTSDYSKYLDCKRAKEFVQWLMNT (Y[Aib]QGTFTSDYSKYLDCKRAKEFVQWLMNT; lactam 17-21) [SEQ ID NO: 31] | 6.3

Row | Substance | In vitro activity (relative activity to SEQ ID NO: 1, %) [%]
23 | YXQGTFCSDYSKYLDERRAKDFVQWLMNT (Y[Aib]QGTFCSDYSKYLDERRAKDFVQWLMNT; lactam 16-20) [SEQ ID NO: 41] | 45.2
24 | YXQGTFCSDYSKYLDSRRAQDFVQWLMNT (Y[Aib]QGTFCSDYSKYLDSRRAQDFVQWLMNT) [SEQ ID NO: 42] | 37.9
25 | YXQGTFTSDYSKYLDEKRAKEFVQWLMNTC (Y[Aib]QGTFTSDYSKYLDEKRAKEFVQWLMNTC; lactam 16-20) [SEQ ID NO: 12] | 56.3
26 | YXQGTFCSDYSKYLDERRAKEFVQWLMNT (Y[Aib]QGTFCSDYSKYLDERRAKEFVQWLMNT; lactam 16-20) [SEQ ID NO: 38] | 167.3
27 | YXQGTFTSDYSKYLDCKRAKEFVQWLMNT [SEQ ID NO: 14] (Y[Aib]QGTFTSDYSKYLDCKRAKEFVQWLMNT; not fully specified (bridges); also: lactam ring between underlined residues, places not shown) | 18.1
28 | YXQGTFTSDCSKYLDERRAKEFVQWLMNT (Y[Aib]QGTFTSDCSKYLDERRAKEFVQWLMNT; lactam 16-20) [SEQ ID NO: 36] | 9.9
29 | YXQGTFTSDYSCYLDSRRAQDFVQWLMNT (Y[Aib]QGTFTSDYSCYLDSRRAQDFVQWLMNT) [SEQ ID NO: 13] | 5.2
30 | YXQGTFTSDYSKYLDEKCAKEFVQWLMNT [SEQ ID NO: 11] (Y[Aib]QGTFTSDYSKYLDEKCAKEFVQWLMNT; not fully specified (bridges); also: lactam ring between underlined residues, places not shown) | 4.6
31 | YXQGTFTSDYSKYLDSCDADDFVVWLINT (Y[Aib]QGTFTSDYSKYLDSCDADDFVVWLINT) [SEQ ID NO: 10] | <0.1
32 | YXQGTFTSDYSKYLCEKRAQDFVVWLMNT (Y[Aib]QGTFTSDYSKYLCEKRAQDFVVWLMNT) [SEQ ID NO: 15] | 1.1
33 | YXQGTFTSDYSKCLDERRAKDFVQWLMNT (Y[Aib]QGTFTSDYSKCLDERRAKDFVQWLMNT; lactam 16-20) [SEQ ID NO: 29] | 61.3
34 | YXQGTFTSDYSKYLDSCDAQDFVVWLINT (Y[Aib]QGTFTSDYSKYLDSCDAQDFVVWLINT) [SEQ ID NO: 9] | <0.1
35 | YXQGTFTSDYSKYLDEKCAKEFVQWLMNT [SEQ ID NO: 21] (Y[Aib]QGTFTSDYSKYLDEKCAKEFVQWLMNT; lactam 16-20) | 57.8
36 | YXQGTFTSDYSKYLDEKRCKEFVQWLMNT (Y[Aib]QGTFTSDYSKYLDEKRCKEFVQWLMNT; lactam 16-20) [SEQ ID NO: 22] | 147.8
37 | YXQGTFTSDYSKYLDEKRAKCFVQWLMNT (Y[Aib]QGTFTSDYSKYLDEKRAKCFVQWLMNT; lactam 16-20) [SEQ ID NO: 25] | 46.9
38 | YXQGTFVSDCSKYLDERRAKDFVQWLMNT (Y[Aib]QGTFVSDCSKYLDERRAKDFVQWLMNT; lactam 16-20) [SEQ ID NO: 39] | 3.7
39 | YXQGTFTSDYSKYCDERRAKEFVQWLMNT (Y[Aib]QGTFTSDYSKYCDERRAKEFVQWLMNT; lactam 16-20) [SEQ ID NO: 35] | 17.7
40 | YXQGTFTSDYSKCLDEKRAKEFVQWLMNT (Y[Aib]QGTFTSDYSKCLDEKRAKEFVQWLMNT; lactam 16-20) [SEQ ID NO: 24] | 58.0
41 | YSQGTFTSDYSKYLDSCEADDFVQWLMNT (glucagon derivative) [SEQ ID NO: 7] | <0.1
42 | WXQGTFTSDYSKCLDERRAKDFVQWLMNT (W[Aib]QGTFTSDYSKCLDERRAKDFVQWLMNT; lactam 16-20) [SEQ ID NO: 30] | 0.3
43 | HSQGTFTSDYSKYLDCERAQDFVQWLMNT (glucagon derivative) [SEQ ID NO: 3] | 6.1
